T1: Kunitz trypsin inhibitor from soybeans (UniProt P01070)
T1 sequence: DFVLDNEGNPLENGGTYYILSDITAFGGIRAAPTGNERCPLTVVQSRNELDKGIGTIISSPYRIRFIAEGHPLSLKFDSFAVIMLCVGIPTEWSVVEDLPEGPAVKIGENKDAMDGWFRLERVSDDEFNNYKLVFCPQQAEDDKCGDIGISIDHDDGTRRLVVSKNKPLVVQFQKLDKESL

T2: Kunitz trypsin inhibitor from soybeans, P01070
T2 chain: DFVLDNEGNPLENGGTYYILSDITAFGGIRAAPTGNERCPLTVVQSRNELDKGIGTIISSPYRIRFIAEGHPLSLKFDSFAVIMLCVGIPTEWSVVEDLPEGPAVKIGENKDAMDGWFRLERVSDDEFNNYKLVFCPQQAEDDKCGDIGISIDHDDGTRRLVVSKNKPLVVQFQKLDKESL


Tests used:
[1] = molecular target: T1, Kunitz trypsin inhibitor from soybeans
[2] = molecular target: Kunitz trypsin inhibitor from soybeans (soybean) (UniProt P01070); test: cell-based or functional assay
[3] = molecular target: T2, Kunitz trypsin inhibitor from soybeans, …

Molecule	Remaining TI activity (%) [3] [%]	also measured
Bromelain		Remaining TI activity (%) [1]: 30%
Albumin (control)		Remaining TI activity (%) [2]: 100%
Papain (protein) IPEYVDWRQKGAVTPVKNQGSCGSCWAFSAVVTIEGIIKIRTGNLNEYSEQELLDCDRRSYGCNGGYPWSALQLVAQYGIHYRNTYPYEGVQRYCRSREKGPYAAKTDGVRQVQPYNEGALLYSIANQPVSVVLEAAGKDFQLYRGGIFVGPCGNKVDHAVAAVGYGPNYILIKNSWGTGWGENGYIRIKRGTGNSYGVCGLYTSSFYPVKN	25	
cysteine proteinase encoded by Aspergillus niger gene nr 28 (protein) MSKLSAAISKLSLSTIATTLLLLTPPTTAYFYKYPALFVYKDTNCTDISFSLVYPSLGNCNGGYYDYAGSFQMFNIDAAYTCNGSDSTLMFEMYNSSGSDCGDESDLLFRQPVTEECTVADVESPGPLEMPVWFELGSLLGNCGGMAGTMLFGVGILEGGLETKLYWKCYSSRLNTSVTVHRLSLILSMGCTSVSDSYNELAAAHYYEDL	26	

From US20050064403A1
